This passage reports protein production results from a protein production outcome set (Wang et al. 2014).

The nature of this data set: label from the status in PepcDB records.

As to “MGHHHHHHSHMGKITFYEDRAFQGRSYETTTDCPNLQPYFSRCNSIRVESGCWMLYERPNYQGQQYLLRRGEYPDYQQWMGLSDSIRSCCLIPQTVSHRLRLYEREDHKGLMMELSEDCPSIQDRFHLSEIRSLHVLEGCWVLYELPNYRGRQYLLRPQEYRRCQDWGAMDAKAGSLRRVVDLY”, the protein production entry is given as “not failed”. Turning to “MGHHHHHHSHMGRGKGPAAEEPLSLLDDMNHCYSRLRELVPGVPRGTQLSQVEILQRVIDYILDLQVV”, the protein production result was “not failed”. The value for “MGHHHHHHSHMIQYIPQRPPIVMISTLVSAEKNVTETELEIPAHGLFVKDGVLHEPGLIENVAQTAAAGVGYACTLTSQPVPVGFIGAVKNLEIDYLPKVGDVLETRVEVLEEIFDMTLIKGESFVKGKRVLTCEMKIVLKK” was “failed”; that for “MGHHHHHHSHMLITVYCVRRDLSEVTFSLQVSPDFELRNFKVLCEAESRVPVEEIQIIHMERLLIEDHCSLGSYGLKDGDIVVLLQKDNVGPRAPGRAPNQPRVDFSGIAVPGTSSSRPQHPGQQQQRTPAAQRSQGLASGEKVAGLQGLGSPALIRSMLLSNPHDLSLLKERNPPLAEALLSGSLETFSQVLMEQQREKALREQERLRLYTADPLDREAQAKIEEEIRQQNIEENMNIAIEEAPESFGQVTMLYINCKVNGHPLKAFVDSGAQMTIMSQACAERCNIMRLVDRRWAGVAKGVGTQRIIGRVHLAQIQIEGDFLQCSFSILEDQPMDMLLGLDMLRRHQCSIDLKKNVLVIGTTGTQTYFLPEGELPLCSRMVSGQDESSDKEITHSVMDSGRKEH” was “failed”. To “MGHHHHHHSHMNSCILQATVVEAPQLRYTQDNQTPVAEMVVQFPGLSSKDAPARLKVVGWGAVAQELQDRCRLNDEVVLEGRLRINSLLKPDGNREKQTELTVTRVHHLTLDSATGI” belongs “failed”; to “MGHHHHHHSHMPDHGDWTYEEQFKQLYELDGDPKRKEFLDDLFSFMQKRGTPVNRIPIMAKQVLDLFMLYVLVTEKGGLVEVINKKLWREITKGLNLPTSITSAAFTLRTQYMKYLYPYECEKRGLSNPNELQAAIDSNRREGRR”, “not failed”.

With “MGHHHHHHSHMSEYLAAADYLPHSAPMVLVDEVIHVDDEHAHCRVAVSREGILAPFLNAQGHLPAWFGIEIIAQTIGVWSGWHGRQSLGLQEKPRPGMLLGGRGYHCQQAIFPAGSLLDVTVMLVMRDEKIGSFEGEIAIDGEKYASGRLNTYQPDDRELNILLEQGKPL”, the protein production result is given as “failed”. To “MGHHHHHHSHMSHYRPELPAPRTDWSLSDVDQWDTAALADGIKSFLLALPAPLVTPEASAEARRALREAAGPVGPALEPPTLPLHRALTLRFLLQHLGRVARRAPALGPAVRALGATF” belongs “failed”; to “MGHHHHHHSHMTDPSKLAVAVVCSSNMNRSMEAHNFLAKKGFNVRSYGTGERVKLPGMAFDKPNVYEFGTKYEDIYRDLESKDKEFYTQNGLLHMLDRNRRIKKCPERFQDTKEQFDIIVTVEERVYDLVVMHMESMESVDNRPVHVLNVDVVDNAEDALMGAFVITDMINMMAKSTDLDNDIDELIQEFEERRKRVILHSVLFY”, “not failed”. The value for “MGHHHHHHSHMTLRCLEPSGNGGEGTRSQWGTAGSAEEPSPQAARLAKALRELGQTGWYWGSMTVNEAKEKLKEAPEGTFLIRDSSHSDYLLTISVKTSAGPTNLRIEYQDGKFRLDSIICVKSKLKQFDSVVHLIDYYVQMCKDKRTGPEAPRNGTVHLYLTKPLYTSAPSLQHLCRLTINKCTGAIWGLPLPTRLKDYLEEYKFQV” was “failed”; that for “MGHHHHHHSHMVASWELRVEGRLLEDSALSKYDATKQKRKFSSFFKSLVIELDKDLYGPDNHLVEWHRTATTQETDGFQVKRPGDVNVRCTVLLMLDYQPPQFKLDPRLARLLGIHTQTRPVIIQALWQYIKTHKLQDPHEREFVI” was “failed”.

For the sequence “MGHHHHHHSHPQLLHFVDQYREQLIARVTSVEVVLDKLHGQVLSQEQYERVLAENTRPSQMRKLFSLSQSWDRKCKDGLYQALKETHPHLIMELWEKGSKKGLLPLSS”, the protein production result is given as “not failed”. To “MGHHHHHHSHSWDFGAFQSSSATDSSMEEIFQHLMAYHQEASKRISSHIPLIIQFFMLQTYGQQLQKAMLQLLQDKDTYSWLLKERSDTSDKRKFLKERLARLTQARRRLAQFPG” belongs “failed”. With “MGHNAINRLQLVATLAEREVMRYTPAGVPIVNCLLSYSGQAMEAQAARQVEFSIEALGAGKMASVLDRIAPGTVLECVGFLARKHRSSKALVFHISGCNVFVKDLEHHHHHH”, the protein production result was “not failed”.

In the case of “MGHQSSWMKQTVIDSVVQSSKVGVFSMFSMDYKAPRKYSHGRNFGVARQQDFAADIVTRRPYAPYDNGMKKGPNKLSRNLVWTSKEYKSPEGNRPRQNAANGSAKPQVIGTGHRVSNQPRKNAVYGPRSSSLSDTRGCGPRLNGSPKKSVCNFWKDGNCKKGEKCQFLHSWSCFPGLAMVAALEGHKNDIKGIALPQGSDKLFSVSGDGTLLIWDCNSGQCVRSINLQAEAGSLISEGPWVFLGLPNAVKAFNVQNSKDVHLEGVVGQVHAMTAANGMLFAGTSSGSILVWKATDSESDPFKYLTSLEGHHSGEVTCFVVGGEVLYSGSVDKTIKVWDLNTLQCRMTLKQHIGTVTSLLCWDKCLISSSLDGTIKLWACSENESLKVVQTRKQELSVHTLCGMHDAEAKPIMFCSYQNGAVGIFDLPSFEERGKMFSTQTICTLTIGPGGLLFSGDKSGNLRVWSLASGTKV”, the protein production result is “failed”. With “MGIDELYKKEFGIVAGVDEAGRGCLAGPVVAAAVVLEKEIEGINDSKQLSPAKRERLLDEIMEKAAVGIGIASPEEIDLYNIFNATKLAMNRALENLSVKPSFVLVDGKGIELSVPGTCLVKGDQKSKLIGAASIVAKVFRDRLMSEFHRMYPQFSFHKHKGYATKEHLNEIRKNGVLPIHRLSFEPVLELLTDDLLREFFEKGLISENRFERILNLLGARKSVVFRKERTNHNLPLF”, the protein production entry was “not failed”. The value for “MGIELVMENAHWFWLSLGGLLLAAEMLGGSGYLLWSGLSAVLVGLLTWIMPLGWPWQGTIFAILTIVTALLWWYWLRKRTLSRPPSTLNQRGQQLVGLRATVSESVTNGFGRVNIGDSSWRVKSEQDLPAGTHVEVIAVDGITLHVRSIER” was “failed”.

On to “MGIHQYFQSLSDLENIYRCPGKFKYQEHSVAEHSYKVTSIAQFFGAVEEDAGNEVNWRALYEKALNHDYSELFIGDIKTPVKYATTELREMLSEVEESMTKNFISREIPATFQPIYRHLLKEGKDSTLEGKILAISDKVDLLYESFGEIQKGNPENIFVEIYSEALATIYEYREMASVKYFLKEILPDMLAEKGIEKTELPQLTTEITTKALRDE”, for which the protein production result is “not failed”. “MGIIDRRRRRAVLVVAVVAAVLIFVADALSPIDGAVAVLYTGVVLMVAPLGRKFIVVAGYISAVLALTAFLWGHASDLVGGALLRLVVSLVAILITVLLSMRDRSARISLAEQVRILEASHDTVIIRDSAGIVRYWNEGAERLYGRSRDQAIGRHYAELFDESAPVDEIDRSMREAGSWSGEVVRTRRDGARLILASRWLQRRDPEGRAIGVIEASADLTESRRAQAEQRRSERRYSTIFNSAGFAALECDLSDALSLVLSAGADVAASLRADPALLAAAVERIVICEANPAALEMFDADGPGELIVAELLAFSIPDARQALETIFVALTTGSTQIETETRFITRRGRTIDAVLRLSVLPDGTDWSRVLLMAVDVTERNEARTKIERISAELAHAGRVSVLGQLAASIAHEVNQPLAAIINYGKSGKRWLVRPTSDIGEVAECLDKIVSNANRAAEVVGRVRFLARKSAPLTDSVDLVVMLQDAIELLRREIHSVKATVRVELSTPIAMIDCDRVQVQQVFVNLLMNALQAMRGIDGHRQILVRIEDSGDSLTVAVCDTGVGIAGDPARIFEPFFSTKSDGMGLGLSICRTIIEGQGGQILASNNDGPGATVAFTLLRNNPDEGRHNRRLIS”: the protein production result is recorded as “failed”. To “MGIMELARIDLSRDDLDKRIGGGIPHGSLIIIEGEESTGKSVLCQRLAYGFLQNRYSVTYVSTQLTTLEFIKQMNSLNYSINKKLLSGALLYIPVYPLIADNKKKDGFLKKVMETRAFYEKDVIIFDSISALIANDASEVNVDDLMAFFKRITALKKIIICTVNPKELPESVLTIIRTSATMLIRTELFTFGGDLKNLAKILKYNMAPGSYQKNIVFRVEPKIGIAVEIASVALEHHHHHH” belongs “not failed”; to “MGKDAKAGGKGKGKQASGSEEAPSKGKGKAGKAADGLGTCTYVKARHVLCEKQGKINEAYKKLQDGWLSNGDKVPPAEFAKIAAEYSECPSGKKGGDLGWFPRGKMAGPFQDVAFNTPVGVTSAPFKSTHGYHIILSEGRKN”, “failed”. The value for “MGKFLIPIEFVFLAIAMTCYLWHRQNQERRRIEISIKQQTQRERFINQITQHIRQSLNLETVLNTTVAEVKTLLQVDRVLIYRIWQDGTGSAITESVNANYPSILGRTFSDEVFPVEYHQAYTKGKVRAINDIDQDDIEICLADFVKQFGVKSKLVVPILQHNRASSLDNESEFPYLWGLLITHQCAFTRPWQPWEVELMKQLANQVAIAIQQSELYEQLQQLNKDLENRVEKRTQQLAATNQSLRMEISERQKTEAALRHTNHTLQSLIAASPRGIFTLNLADQIQIWNPTAERIFGWTETEIIAHPELLTSNILLEDYQQFKQKVLSGMVSPSLELKCQKKDGSWIEIVLSAAPLLDSEENIAGLVAVVADITEQKRQAEQIRLLQSVVVNTNDAVVITEAEPIDDPGPRILYVNEAFTKITGYTAEEMLGKTPRVLQGPKTSRTELDRVRQAISQWQSVTVEAEVLNDSYKEKKSPLK” was “failed”; that for “MGKINTDPAATSGIKVLDRAVSIMLAVAERPLSLTELCDVTNLPRATAHRLATALETHNILTRTSDGKWTIGAVLSSLGA” was “failed”; that for “MGKKIITISREYGSGGRQVGLTVAKKLGMEFYDKELIDAAAKEIGFPTEMIADREQRLTNSLLYNFAMGTLYGIAYPREPKVSELPLTEQIYQAQKKAIEEAAKRGSCIFVGRCADYILKSRPDVLRVFIYADRDIRKRRAIEEYGEIEEYIDEFMYQTDKRRRIHYENYTNQKWGSRENYDLMLNSGDLGLDKCVELLCEAVK” was “not failed”.

As for “MGKPVTNEAKGVYVMSVLPNMPAAGRLEAGDRIAAIDGQPINTSEQIVSYVREKQAGDRVRVTFIRDRKQHEAELVLKPFPHHPNQIGLGVTLRTLEHHHHHH”, the protein production entry is “not failed”. To “MGKTKRYWLLKTEPNEWSWSDQESNGGISKWDGVKNKQAQKNLKSMTLGDLCFFYHSGTKSRCVVGVVEVSREWYTDDAEGVEGEGAVDVKAIGEMRKCVDLKEMKGDKGIITKGFVLFRQPRLSVVPVEEDVWNMICELGNGFCGDGKEDCESSDDE” belongs “failed”; to “MGKVSSLKLKTNRRCIYITTIKEITEAIKADPDNAEYTAKGWDPLFHVLPTATILVISQAPGRIAQNTKTYFNDASGDRLRDWMGVTREQFYQSDRIAVMPLDFYYPGKGKSGDLPPRKGFMDKWHEPLLAMMPNVQLTLLVGQYAIKAYLGRSRQKTLTATVQNYQDYLPDYFPLVHPSPLNYGWQKKNPWFQATVVPDLQRRVQIALK”, “failed”; to “MGKVTIIAGGIKTESRLNGLIQLAANQLANNGTEVKIIEVHKIQAEALVTADFTHPDIHLANSEIESSSGVIIATPIFKAAYSGVLKAYLDLLPLKALKGKVVLPLGLGGSNGHLLALQYALDPVLKELGAEIILKGQFTVDKQIERLGNGLYEIEITAKERLDSALNQFISLLNQNSVEVLEHHHHHH”, “not failed”.
